Assay results as given in US20150203825A1, “Laccase of Podospora Anserina and Uses of Same” (priority 2012, published 2015).

How the values were obtained:
[1] = substrate: CCn1c(=NN=c2sc3cc(S(=O)(=O)O)ccc3n2CC)sc2cc(S(=O)(=O)O)ccc21; assay: purified protein, by the assay type; conditions: other: ABTS 0 to 1.5 mM, 0.1 M citrate/phosphate buffer, pH 3.4, 37° C.
[2] = substrate: COc1cc(/C=N/N=C/c2cc(OC)c(O)c(OC)c2)cc(OC)c1O; assay: Enzymatic test, oxidation of syringaldazine (SGZ) (stationary-phase kinetics); type: biochemical, Podospora anserina; conditions: other: SGZ 0 to 50 μM (diluted in methanol), citrate-phosphate 50 mM buffer, pH 7, 37° C., 530 nm
Procedure: The enzymatic tests are carried out using a Varian spectrophotometer in a 0.1 M citrate/phosphate buffer at 37° C. in a volume of 3 ml by monitoring the oxidation of various substrates at a given wavelength as a function of time. The specific activity of the enzyme is expressed in μmol of substrates oxidized per minute and per mg of protein.
The experiments are carried out at 37° C. on a Varian spectrophotometer in a citrate-phosphate 50 mM buffer, pH 7. The concentration of SGZ, diluted in methanol, varies in the test from 0 to 50 μM. The test, initiated by the addition of enzyme, consists in monitoring the oxidation of the SGZ at 530 nm by colorimetric change (ε530nm=64 mM^−1 cm^−1).

[3] = Enzymatic activity (SGZ oxidation) in the presence of NaCl; type: biochemical; conditions: 150 mM of NaCl, SGZ oxidation at 530 nm, 37° C., 50 mM phosphate-citrate buffer, pH 7
Procedure: In order to verify the influence of sodium chloride (present in a physiological medium) on the activity of the laccase, increasing concentrations of NaCl were added to the activity test consisting in monitoring the oxidation, at 530 nm, of the SGZ at 37° C. in a 50 mM phosphate-citrate buffer, pH 7.

[4] = Electrochemical measurements, enzymatic electrode with redox polymer, reduction of O2; conditions: pH 7, in the presence of Cl
Text: At pH 7 and in the presence of Cl, the catalytic current for the reduction of O2 is 40% greater for the electrode modified with the novel enzyme. In addition, the stability over time is 200% greater.

Row | Molecule | Km [1] [µM] | kcat [1] [s⁻¹] | Km [2] [µM] | kcat [2] [s⁻¹] | oxidation activity still exhibited in the presence of NaCl [3] [%] | catalytic current for the reduction of O2, greater than electrode with laccase of Trametes versicolor [4] [%] | stability over time, greater than electrode with laccase of Trametes versicolor [4] [%]
1 | Podospora anserina laccase, SEQ ID No. 3 (Podospora anserina S mat+) (protein, purified) SVARKDWESPTYSWLYQFPLPIPPVKTPKLTVTNLVTGNPIHYYEVYINRFTQQVYPNKGPATLVGYDGISPGPTFIVERGHEAVVRFVNNASIENSVHLHGSYSRAPWDGWAEDVTMPGEFKDYYYPNQQAARFLWYHDHAFMHTAENAYFGQAGAYIIHDPAEDALNLPSGYGVHDIPLVLSSKQYNNNGSLFTTNGETDSLFGDVIHVNGQPWPYFNVEPRKYRLRFLDAAVSRTFKLYFQRQTGSSAKIPFQVIATDAGLMASPATTNDLYISMGERYEVVFDFSPFAGQNITLRNTDDVGQDDDYLHTNKVMRFIVGNTPVTDTSSIPSTLATVDWPTSDGTGVDRHFKFDRSNGEWQINGVVFADVNNRVLANVPRGKVEIWELENGGGGWSHPIHIHLVDFKVLWRSNDDGRPVYNYEAQGLKDVVWLAPNEIVRVEAHYAPWDGVYMFHCHNLIHEDHDMMAAFNVTALTDLGYNETAFRDPMEARWRAEPVTAAKFTTAAITEKIQFMAGLQPYNNVEEVLEVLDEYWATHSKRDAQDPAPKTRRMRIEGGKVKEVR | 307 | 1372 | 10.9 | 1.3 |  |  | 
2 | laccase of SEQ ID No. 3: Podospora anserina laccase of SEQ ID No. 1 with an additional N-terminal serine, expressed in Pichia pastoris from the pFD56 vector (protein, listed as Podospora anserina) SVARKDWESPTYSWLYQFPLPIPPVKTPKLTVTNLVTGNPIHYYEVYINRFTQQVYPNKGPATLVGYDGISPGPTFIVERGHEAVVRFVNNASIENSVHLHGSYSRAPWDGWAEDVTMPGEFKDYYYPNQQAARFLWYHDHAFMHTAENAYFGQAGAYIIHDPAEDALNLPSGYGVHDIPLVLSSKQYNNNGSLFTTNGETDSLFGDVIHVNGQPWPYFNVEPRKYRLRFLDAAVSRTFKLYFQRQTGSSAKIPFQVIATDAGLMASPATTNDLYISMGERYEVVFDFSPFAGQNITLRNTDDVGQDDDYLHTNKVMRFIVGNTPVTDTSSIPSTLATVDWPTSDGTGVDRHFKFDRSNGEWQINGVVFADVNNRVLANVPRGKVEIWELENGGGGWSHPIHIHLVDFKVLWRSNDDGRPVYNYEAQGLKDVVWLAPNEIVRVEAHYAPWDGVYMFHCHNLIHEDHDMMAAFNVTALTDLGYNETAFRDPMEARWRAEPVTAAKFTTAAITEKIQFMAGLQPYNNVEEVLEVLDEYWATHSKRDAQDPAPKTRRMRIEGGKVKEVR |  |  |  |  | 70 | 40 | 200
